# Results from US7745109B2, “Regulation of cell growth by MUC1” (Dana-Farber Cancer Insitute, Inc., priority 2003, dated 2010).
# Target: T1, MUC1-p120 complexes (Homo sapiens, UniProt O60716)
# T1 sequence (O60716 1-968): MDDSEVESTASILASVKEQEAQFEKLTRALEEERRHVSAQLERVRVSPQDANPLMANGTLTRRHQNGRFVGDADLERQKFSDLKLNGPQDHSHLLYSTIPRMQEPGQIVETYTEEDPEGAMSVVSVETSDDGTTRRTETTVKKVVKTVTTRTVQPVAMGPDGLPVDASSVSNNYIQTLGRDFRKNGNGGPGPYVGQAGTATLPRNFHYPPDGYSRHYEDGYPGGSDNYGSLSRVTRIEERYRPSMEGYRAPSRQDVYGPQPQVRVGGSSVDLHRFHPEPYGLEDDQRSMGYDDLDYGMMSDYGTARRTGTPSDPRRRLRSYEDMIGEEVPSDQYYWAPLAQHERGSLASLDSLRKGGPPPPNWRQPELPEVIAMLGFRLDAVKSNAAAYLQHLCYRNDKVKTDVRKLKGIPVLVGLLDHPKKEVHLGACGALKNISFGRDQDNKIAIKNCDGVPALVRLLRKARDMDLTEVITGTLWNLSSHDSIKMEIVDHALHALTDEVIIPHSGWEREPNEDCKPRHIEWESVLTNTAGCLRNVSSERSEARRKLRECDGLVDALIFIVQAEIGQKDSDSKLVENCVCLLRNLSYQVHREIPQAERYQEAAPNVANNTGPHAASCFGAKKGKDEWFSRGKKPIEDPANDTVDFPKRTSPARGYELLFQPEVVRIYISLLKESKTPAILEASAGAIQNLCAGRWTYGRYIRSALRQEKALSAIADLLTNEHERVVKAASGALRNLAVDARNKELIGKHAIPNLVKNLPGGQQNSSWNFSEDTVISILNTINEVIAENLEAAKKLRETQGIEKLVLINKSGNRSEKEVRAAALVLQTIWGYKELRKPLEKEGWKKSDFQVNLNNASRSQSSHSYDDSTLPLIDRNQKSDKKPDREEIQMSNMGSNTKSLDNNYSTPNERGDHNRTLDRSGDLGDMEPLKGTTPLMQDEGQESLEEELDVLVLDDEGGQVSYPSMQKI
# Assay: Inhibition of MUC1/CD binding to GST-p120 by peptides (glutathione bead precipitation, anti-MUC1/CD immunoblot)
# Conditions: peptide incubated with MUC1/CD and GST-p120; immunoblot with anti-MUC1/CD (FIG. 7C)
# Method: FIG. 7C is a pair of photographs of immunoblots. In the table above the immunoblots is indicated the mixtures of MUC1/CD, GST-p120, and GST which were incubated in the absence of inhibitor peptide (first and fourth lanes of both immunoblots) or in the presence of either a peptide with the amino acid sequence […] (SEQ ID NO:7) or a peptide with the amino acid sequence […] (SEQ ID NO:8). The four mixtures were incubated with glutathione-Sepharose 4B™ beads and proteins precipitated by the beads were subjected to immunoblot analysis with anti-MUC1/CD (“IB: anti-MUC1/CD”) (top immunoblot) or anti-p120 (“IB: anti-p120”) ([…]). The positions of MUC1/CD and p120 on the immunoblots are indicated.
# To identify the site in MUC1/CD that binds to p120, full-length MUC1/CD and the N- and C-terminal fragments (FIG. 7A) were incubated with purified GST-p120. […] To further localize the site, two peptides from the overlapping region were prepared. […] These findings indicate that p120 interacts with the […] site (SEQ ID NO:7) in MUC1.
sequence,measurement,value
MSEYPTYHTH (listed as Homo sapiens) [peptide from the MUC1/CD region common to the N- and C-terminal fragments],inhibition of the formation of MUC1-p120 complexes,inhibits the formation of MUC1-p120 complexes
